This passage reports Km results from publication PMC12063518, “IAT4, a New Indolamine N‐Acetyltransferase in Saccharomyces cerevisiae Involved in Melatonin Biosynthesis” (Journal of Pineal Research, 2025).

Common to all, as to experiment: purified protein
Substrate in data set [1]: NCCc1c[nH]c2ccc(O)cc12
The settings on record: 0.2 mM acetyl-CoA, pH 8.8, 37 °C, 15 min enzymatic assay as Iat4, fit R2 = 0.825.

Substrate in data set [2]: NCCc1c[nH]c2ccc(O)cc12
The format is biochemical, Saccharomyces cerevisiae. The settings on record: 0.2 mM acetyl-CoA, pH 8.8, 37 °C.

Substrate in data set [3]: NCCc1c[nH]c2ccccc12
The format is biochemical, Saccharomyces cerevisiae. The conditions noted are these: 0.2 mM acetyl-CoA, pH 8.8, 37 °C, 15 min.

Substrate in data set [4]: COc1ccc2[nH]cc(CCN)c2c1
The format is biochemical, Saccharomyces cerevisiae. The conditions noted are these: 0.2 mM acetyl-CoA, pH 8.8, 37 °C, 15 min.

B1: Paa1 (Saccharomyces cerevisiae S288C) (protein)
chain: MASSSSTLPLHMYIRPLIIEDLKQILNLESQGFPPNERASEEIISFRLINCPELCSGLFIREIEGKEVKKETLIGHIMGTKIPHEYITIESMGKLQVESSNHIGIHSVVIKPEYQKKNLATLLLTDYIQKLSNQEIGNKIVLIAHEPLIPFYERVGFKIIAENTNVAKDKNFAEQKWIDMERELIKEEYDN
In the case of B1, in data set [1], the Km (in general, the substrate concentration at which the rate is half of its maximum) came out at 4250 ± 1460 µM.

B2: Iat4 (Saccharomyces cerevisiae S288C) (protein)
chain: MSFENKLPTPLENNDAKGHMVCTLNKTTDARRAAETLSIAFSNSPAFHFICKKILNIPLAEKVPTRTITTDIISPFLDSPYGEISEVNTFDAVAVWSLPPHVPKARSNDAKFNKDFIDDLNARVKQVIPNGINYYYLFCIGKNLNEKGIRGSVRTIFEEYKRRADEENCAIVLEAIAEHAKSVYEYFGFRNYMTFKYGECEVDSNGNCDPNGEGFTAYLMIYHKDGNKVLKE
notes: GST fusion from pGEX-5X-1, E. coli Rosetta (DE3), glutathione Sepharose; native protein 232 aa
In the case of B2, the Km came out at 0.93 mM in data set [2] (15 min), 356 µM in data set [3] and 353 µM in data set [4].

B3: Hpa2 (Saccharomyces cerevisiae S288C) (protein)
chain: MSNTSEDNITVRFVTENDKEGWQRLWKSYQDFYEVSFPDDLDDFNFGRFLDPNIKMWAAVAVESSSEKIIGMINFFNHMTTWDFKDKIYINDLYVDENSRVKGAGGKLIQFVYDEADKLGTPSVYWCTDESNHRAQLLYVKVGYKAPKILYKRKGY
notes: same enzymatic assay as Iat4
B3: the Km in data set [2] (15 min enzymatic assay as Iat4, unit not given, mM from the preceding sentence) is on record as 6.82 ± 1.62 mM.
